Data: article PMC2944810

Target: GFP:2B (Grapevine fanleaf virus movement protein 2B fused to EGFP) (Grapevine fanleaf virus)
Test: FRET or BRET; FRET-FLIM in living N. benthamiana leaf epidermal cells after transient co-expression by agro-infiltration; GFP fusion of the movement protein as donor, RFP fusion as acceptor; fluorescence lifetime of the donor measured at tubules or plasmodesmata

Substance: GFP:2B (Grapevine fanleaf virus movement protein 2B fused to EGFP) (natural protein)
- mean FRET (percent): 24%
